Reference: patent publication US20250313634A1 (WUXI BIOLOGICS SHANGHAI, published 2025)

What was measured:
Assay in all cases: capture ELISA on coated 1.14.4; relative to silent alanine substitutions
[1] = molecular target: T1, hPD-L1_ECD.His point mutant R125A (human, UniProt Q9NZQ7 19-238)
T1 construct: extracellular domain
Method: (§1) After interacting with the supernatant that contains quantified PD-L1 mutant or human/mouse PD-L1_ECD.His protein (Sino Biological, China), HRP conjugated anti-His antibody (1:5000; Rockland Immunochemicals, Pottstown, PA) was added as detection antibody. Absorbance was normalized according to the average of control mutants. After setting an additional cutoff to the binding fold change (<0.55), the final determined epitope residues were identified.
(§2) The observed binding reductions most probably resulted from the instability or even collapse of hPD-L1 structure after alanine substitutions. After setting an additional cutoff to the binding fold change (<0.55), the final determined epitope residues were listed in Table 3.

[2] = molecular target: T2, hPD-L1_ECD.His point mutant Q83A (human, UniProt Q9NZQ7 19-238)
T2 construct: extracellular domain
T2 sequence (Q9NZQ7 19-238 Q83A): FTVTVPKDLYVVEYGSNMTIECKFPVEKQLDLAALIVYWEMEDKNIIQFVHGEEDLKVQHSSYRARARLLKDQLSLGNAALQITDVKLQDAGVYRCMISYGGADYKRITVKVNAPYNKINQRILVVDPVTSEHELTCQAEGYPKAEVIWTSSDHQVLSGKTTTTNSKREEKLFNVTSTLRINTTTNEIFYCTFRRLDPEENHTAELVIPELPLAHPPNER
Method: as §1, §2

[3] = molecular target: T3, hPD-L1_ECD.His point mutant K124A (human, UniProt Q9NZQ7 19-238)
T3 construct: extracellular domain
T3 sequence (Q9NZQ7 19-238 K124A): as the sequence (Q9NZQ7 19-238 Q83A) above, with A65Q, K106A counted along it
Method: as §1, §2

[4] = molecular target: T4, hPD-L1_ECD.His point mutant H69A (human, UniProt Q9NZQ7 19-238)
T4 construct: extracellular domain
T4 sequence (Q9NZQ7 19-238 H69A): as the sequence (Q9NZQ7 19-238 Q83A) above, with H51A, A65Q counted along it
Method: as §1, §2

[5] = molecular target: T5, hPD-L1_ECD.His point mutant L88A (human, UniProt Q9NZQ7 19-238)
T5 construct: extracellular domain
T5 sequence (Q9NZQ7 19-238 L88A): as the sequence (Q9NZQ7 19-238 Q83A) above, with A65Q, L70A counted along it
Method: as §1, §2

[6] = molecular target: T6, hPD-L1_ECD.His point mutant S93A (human, UniProt Q9NZQ7 19-238)
T6 construct: extracellular domain
T6 sequence (Q9NZQ7 19-238 S93A): as the sequence (Q9NZQ7 19-238 Q83A) above, with A65Q, S75A counted along it
Method: as §1, §2

[7] = molecular target: T7, hPD-L1_ECD.His point mutant G159A (human, UniProt Q9NZQ7 19-238)
T7 construct: extracellular domain
T7 sequence (Q9NZQ7 19-238 G159A): as the sequence (Q9NZQ7 19-238 Q83A) above, with A65Q, G141A counted along it
Method: as §1, §2

[8] = molecular target: T8, hPD-L1_ECD.His point mutant L50A (human, UniProt Q9NZQ7 19-238)
T8 construct: extracellular domain
T8 sequence (Q9NZQ7 19-238 L50A): as the sequence (Q9NZQ7 19-238 Q83A) above, with L32A, A65Q counted along it
Method: as §1, §2

[9] = molecular target: T9, hPD-L1_ECD.His point mutant A52G (human, UniProt Q9NZQ7 19-238)
T9 construct: extracellular domain
T9 sequence (Q9NZQ7 19-238 A52G): as the sequence (Q9NZQ7 19-238 Q83A) above, with A34G, A65Q counted along it
Method: as §1, §2

[10] = molecular target: T10, hPD-L1_ECD.His point mutant P133A (human, UniProt Q9NZQ7 19-238)
T10 construct: extracellular domain
T10 sequence (Q9NZQ7 19-238 P133A): as the sequence (Q9NZQ7 19-238 Q83A) above, with A65Q, P115A counted along it
Method: as §1, §2

[11] = molecular target: T11, hPD-L1_ECD.His point mutant G95A (human, UniProt Q9NZQ7 19-238)
T11 construct: extracellular domain
T11 sequence (Q9NZQ7 19-238 G95A): as the sequence (Q9NZQ7 19-238 Q83A) above, with A65Q, G77A counted along it
Method: as §1, §2

[12] = molecular target: T12, hPD-L1_ECD.His point mutant N131A (human, UniProt Q9NZQ7 19-238)
T12 construct: extracellular domain
T12 sequence (Q9NZQ7 19-238 N131A): as the sequence (Q9NZQ7 19-238 Q83A) above, with A65Q, N113A counted along it
Method: as §1, §2

[13] = molecular target: T13, hPD-L1_ECD.His point mutant Y118A (human, UniProt Q9NZQ7 19-238)
T13 construct: extracellular domain
T13 sequence (Q9NZQ7 19-238 Y118A): as the sequence (Q9NZQ7 19-238 Q83A) above, with A65Q, Y100A counted along it
Method: as §1, §2

[14] = molecular target: T14, hPD-L1_ECD.His point mutant E218A (human, UniProt Q9NZQ7 19-238)
T14 construct: extracellular domain
T14 sequence (Q9NZQ7 19-238 E218A): as the sequence (Q9NZQ7 19-238 Q83A) above, with A65Q, E200A counted along it
Method: as §1, §2

[15] = molecular target: T15, hPD-L1_ECD.His point mutant E71A (human, UniProt Q9NZQ7 19-238)
T15 construct: extracellular domain
T15 sequence (Q9NZQ7 19-238 E71A): as the sequence (Q9NZQ7 19-238 Q83A) above, with E53A, A65Q counted along it
Method: as §1, §2

[16] = molecular target: T16, hPD-L1_ECD.His point mutant S34A (human, UniProt Q9NZQ7 19-238)
T16 construct: extracellular domain
T16 sequence (Q9NZQ7 19-238 S34A): as the sequence (Q9NZQ7 19-238 Q83A) above, with S16A, A65Q counted along it
Method: as §1, §2

[17] = molecular target: T17, hPD-L1_ECD.His point mutant H78A (human, UniProt Q9NZQ7 19-238)
T17 construct: extracellular domain
T17 sequence (Q9NZQ7 19-238 H78A): as the sequence (Q9NZQ7 19-238 Q83A) above, with H60A, A65Q counted along it
Method: as §1, §2

[18] = molecular target: T18, hPD-L1_ECD.His point mutant G119A (human, UniProt Q9NZQ7 19-238)
T18 construct: extracellular domain
T18 sequence (Q9NZQ7 19-238 G119A): as the sequence (Q9NZQ7 19-238 Q83A) above, with A65Q, G101A counted along it
Method: as §1, §2

[19] = molecular target: T19, hPD-L1_ECD.His point mutant V44A (human, UniProt Q9NZQ7 19-238)
T19 construct: extracellular domain
T19 sequence (Q9NZQ7 19-238 V44A): as the sequence (Q9NZQ7 19-238 Q83A) above, with V26A, A65Q counted along it
Method: as §1, §2

[20] = molecular target: T20, hPD-L1_ECD.His point mutant Y28A (human, UniProt Q9NZQ7 19-238)
T20 construct: extracellular domain
T20 sequence (Q9NZQ7 19-238 Y28A): as the sequence (Q9NZQ7 19-238 Q83A) above, with Y10A, A65Q counted along it
Method: as §1, §2

[21] = molecular target: T21, hPD-L1_ECD.His point mutant L175A (human, UniProt Q9NZQ7 19-238)
T21 construct: extracellular domain
T21 sequence (Q9NZQ7 19-238 L175A): as the sequence (Q9NZQ7 19-238 Q83A) above, with A65Q, L157A counted along it
Method: as §1, §2

[22] = molecular target: T22, hPD-L1_ECD.His point mutant N236A (human, UniProt Q9NZQ7 19-238)
T22 construct: extracellular domain
T22 sequence (Q9NZQ7 19-238 N236A): as the sequence (Q9NZQ7 19-238 Q83A) above, with A65Q, N218A counted along it
Method: as §1, §2

[23] = molecular target: T23, hPD-L1_ECD.His point mutant K25A (human, UniProt Q9NZQ7 19-238)
T23 construct: extracellular domain
T23 sequence (Q9NZQ7 19-238 K25A): as the sequence (Q9NZQ7 19-238 Q83A) above, with K7A, A65Q counted along it
Method: as §1, §2

[24] = molecular target: T24, hPD-L1_ECD.His point mutant R212A (human, UniProt Q9NZQ7 19-238)
T24 construct: extracellular domain
T24 sequence (Q9NZQ7 19-238 R212A): as the sequence (Q9NZQ7 19-238 Q83A) above, with A65Q, R194A counted along it
Method: as §1, §2

[25] = molecular target: T25, hPD-L1_ECD.His point mutant V29A (human, UniProt Q9NZQ7 19-238)
T25 construct: extracellular domain
T25 sequence (Q9NZQ7 19-238 V29A): as the sequence (Q9NZQ7 19-238 Q83A) above, with V11A, A65Q counted along it
Method: as §1, §2

[26] = molecular target: T26, hPD-L1_ECD.His point mutant T154A (human, UniProt Q9NZQ7 19-238)
T26 construct: extracellular domain
T26 sequence (Q9NZQ7 19-238 T154A): as the sequence (Q9NZQ7 19-238 Q83A) above, with A65Q, T136A counted along it
Method: as §1, §2

T1 sequence (Q9NZQ7 19-238 R125A): as the sequence (Q9NZQ7 19-238 Q83A) above, with A65Q, R107A counted along it

B1: 1.14.4 (antibody, V domains shown)
VH: EVQLLESGGGLVQPGGSLRLSCAASGFTFSSYAMSWVRQAPGKGLEWVSGISGSGGFTYYADSVKGRFTISRDNSKNTLYLQMNSLRAEDTAVYYCAKPPRGYNYGPFDYWGQGTLVTVSS
VL: SYVLTQPPSVSVAPGQTARITCGGNNIGSKSVHWYQQKPGQAPVLVVYDDSDRPSGIPERFSGSNSGNTATLTISRVEAGDEADYYCQVWDSSSDHVVFGGGTKLTVL
notes: Fully human monoclonal antibody with a human constant region of IgG4 isotype
fold change [1]: 0.959 fold
fold change [2]: 0.982 fold
fold change [3]: 1.06 fold
fold change [4]: 1.06 fold
fold change [5]: 1.1 fold
fold change [6]: 1.15 fold
fold change [7]: 0.448 fold
fold change [8]: 0.614 fold
fold change [9]: 0.622 fold
fold change [10]: 0.664 fold
fold change [11]: 0.668 fold
fold change [12]: 0.68 fold
fold change [13]: 0.701 fold
fold change [14]: 0.732 fold
fold change [15]: 0.772 fold
fold change [16]: 0.813 fold
fold change [17]: 0.821 fold
fold change [18]: 0.825 fold
fold change [19]: 0.837 fold
fold change [20]: 0.842 fold
fold change [21]: 0.842 fold
fold change [22]: 0.848 fold
fold change [23]: 0.857 fold
fold change [24]: 0.87 fold
fold change [25]: 0.882 fold
fold change [26]: 0.888 fold
